Data from paper PMC2563962 (Structure (London, England : 1993), 2008).

Target: the molecule itself
Experiment: SEC

B1: SusD (residues 26-551) of Bacteroides thetaiotaomicron (domain or fragment, Bacteroides thetaiotaomicron ATCC 29148, UniProt Q8A1G2 26-551, looked up)
chain: INDLDISPIDPQTGGSFDQQGVFVKGYAMLGVTGQKGIDGSPDLDGQDEGESGFYRTTFNCNELPTDECLWAWQENQDIPQLTSISWSPSSQRTEWVYVRLGYDITQYNFFLDQTEGMTDAETLRQRAEIRFLRALHYWYFLDLFGKAPFKEHFSNDLPVEKKGTELYTYIQNELNEIEADMYEPRQAPFGRADKAANWLLRARLYLNAGVYTGQTDYAKAEEYASKVIGSAYKLCTNYSELFMADNDENENAMQEIILPIRQDGVKTRNYGGSTYLVCGTRVAGMPRMGTTNGWSCIFARAAMVQKFFSNLEDVPMLPADVEIPTKGLDTDEQIDAFDAEHGIRTEDMIKAAGDDRALLYSGVGGGRRKIQTDAISGFTDGLSIVKWQNYRSDGKPVSHATYPDTDIPLFRLAEAYLTRAEAIFRQGGDATGDINELRKRANCTRKVQTVTEQELIDEWAREFYLEGRRRSDLVRFGMFTTNKYLWDWKGGAMNGTSVASYYNKYPIPVSDINNNRNMSQNEGYK
stoichiometry N: 2
